Source: publication PMC12073449, “Development of a Mechanism of Action-Reflective Cell-Based Reporter Gene Assay for Measuring Bioactivities of Therapeutic Glucagon-like Peptide-2 Analogues” (Molecules, 2025)
Square brackets hold non-standard residues; d marks the D form. Ends that are not written are not given here. Nle = CCCC[C@H](N)C(=O)O

Legend:
human GLP-2R [1] = biological target: T1, human GLP-2R (Homo sapiens, UniProt O95838); assay: Cell-based reporter gene assay (RGA), HEK293-GLP-2R-Luc, CRE-luciferase; settings: for concentration–response curve in RGA (specificity) / dose-response curve in RGA: diluted to 2.665 µmol/L and further 7-fold for 10 concentration points, HEK293-GLP-2R-Luc cells; for Mean potency: mean of 8 tests, two analysts
T1 construct: The full-length cDNA of human GLP-2R was synthesized, cloned, and inserted into the pLU.cmv.Zeo vector; expressed in transfected cells
T1 sequence (O95838 1-553): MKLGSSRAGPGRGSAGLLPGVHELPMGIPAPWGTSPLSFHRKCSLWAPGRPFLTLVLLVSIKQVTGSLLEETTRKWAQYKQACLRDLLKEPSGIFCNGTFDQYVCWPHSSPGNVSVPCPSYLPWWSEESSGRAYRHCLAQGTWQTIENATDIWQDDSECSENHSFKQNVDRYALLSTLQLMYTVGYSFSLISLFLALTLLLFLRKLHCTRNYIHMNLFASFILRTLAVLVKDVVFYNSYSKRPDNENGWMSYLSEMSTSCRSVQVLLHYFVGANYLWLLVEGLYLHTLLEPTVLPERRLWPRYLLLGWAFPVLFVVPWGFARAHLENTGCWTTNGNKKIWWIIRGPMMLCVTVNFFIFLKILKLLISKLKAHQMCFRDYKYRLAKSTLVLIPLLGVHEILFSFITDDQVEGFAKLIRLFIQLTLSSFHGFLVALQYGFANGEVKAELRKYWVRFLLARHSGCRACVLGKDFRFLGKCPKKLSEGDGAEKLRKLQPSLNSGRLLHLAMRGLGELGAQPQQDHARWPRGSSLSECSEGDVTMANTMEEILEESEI
Experimental: To generate a HEK293 cell line stably expressing CRE-driven luciferase and GLP2R, the CRE-miniP.Luc virus-containing cell supernatants were diluted in DMEM in the presence of 8 µg/mL polybrene before being added to HEK293 cells. To obtain a stable cell pool, the medium was replaced 48 h after incubation, with fresh culture medium containing 3 µg/mL puromycin. After about 3 weeks selection, the cell pool was then further infected with pLU.cmv-GLP2R.Zeo virus and selected with 200 µg/mL Zeocin and 3 µg/mL puromycin. […] The expression of GLP-2R was examined using flow cytometry. After that, the positive clones were routinely maintained in selective medium.
Cell-based RGA has been described previously. Briefly, 50 microliters of HEK293-GLP-2R-Luc cells were seeded into a 96-well white plate at a density of 4 × 10^4 cells/well. The cells were then incubated at 37 °C with 5% CO2 overnight (16 to 24 h). […] After 5 h of incubation, 100 µL of britelite plus reporter Gene Assay reagent were added to each well and mixed thoroughly under subdued light conditions for 5 min. The RLU signal was then determined with a SpectraMax M5e multimode plate reader (Molecular Devices, San Jose, CA, USA).
The RGA was validated as described previously. […] Samples of each potency level were tested by two analysts 8 times in total. […] The response of HEK293-GLP2R-Luc cells to these samples were determined as illustrated in 4.6.
The lower/upper asymptote was determined by the ratio of the top asymptote to the bottom asymptote when RGA best fit the 4PL model. The correlation coefficient (R^2), deviations from parallelism, and the regression in the 4PL model were estimated using SoftMax® Pro 7.1 software (Molecular Devices, San Jose, CA, USA). Specifically, a linear regression with an R^2 value no less than 0.98 was considered to have a very good fit. Additionally, a p-value below 0.01 was regarded as statistically significant. […] All the dose-response curves were plotted using GraphPad Prism® software 8.0.2 (GraphPad, Boston, MA, USA).

[2] = Teduglutide content by HPLC after storage at 37 °C; format: physicochemical; settings: XBridge Peptide BEH C18, 214 nm, peak area ratio to non-treated DS
Experimental: The bioactivities of the treated and non-treated DS were then measured by the RGA. The teduglutide contents were analyzed by HPLC. An XBridge Peptide BEH C18 column (300 A, 5 μm, 4.6 mm × 250 mm) purchased from Waters (Milford, MA, USA) was used with a flow rate of 1.0 mL/min and was detected at 214 nm. The mobile phase was aqueous solution containing 0.1% trifluoroacetic acid and acetonitrile containing 0.1% trifluoroacetic acid. A total of 50 μL DS samples were injected into the column.

[3] = Appearance of teduglutide drug substance solution after storage at 37 °C; format: physicochemical; settings: after incubation for 12 or 14 days at 37 °C
human GLP-2R [4] = biological target: T1, human GLP-2R; assay: Cell-based reporter gene assay (RGA), HEK293-GLP-2R-Luc, CRE-luciferase; settings: incubation time 5 h and 6 h, compared with 4 h; 96-well plate
patients with SBS = settings: cited from earlier work
Text: (§1) This truncated form is subsequently degraded by endopeptidases and presumably cleared via renal excretion. […] Consequently, DPP-4 resistant GLP-2 analogues with an extended half-life were developed.

[5] = set-up: method as in PMID 35933503; settings: general statement; cited from earlier work
Text: The diverse functions of GLP-2 highlight its significance in maintaining intestinal health and physiology. As a naturally occurring gut hormone, GLP-2 not only promotes nutrient absorption by decreasing intestinal motility and permeability, but also plays a pivotal role in stimulating intestinal epithelial cell growth and function. This multifaceted action of GLP-2 is crucial for the maintenance of the intestinal barrier, which is essential for preventing the translocation of harmful bacteria and toxins into the bloodstream.

rat = tested on: rat; set-up: method as in PMID 31577440; settings: head-to-head preclinical study; cited from earlier work
[6] = tested on: dipeptidyl peptidase 4 (DPP-4); settings: cited from earlier work
Text: as §1

rat GLP-2R = settings: BHK fibroblasts stably transfected with the rat GLP-2R; cited from earlier work
Text: GLP-2 exerts its effects largely through interaction with the GLP-2 receptor (GLP-2R), which belongs to the class B1 of the G protein-coupled receptors. […] This led to the hypothesis that GLP-2 acts indirectly through a complex network of indirect mediators that induce diverse signaling pathways, which remains poorly understood.

[7] = tested on: enteric neurons and glial cells; settings: via the PI3K/Akt/mTOR pathway; cited from earlier work
Text: (§2) GLP-2 regulates proliferative and cytoprotective pathways in the intestine. […] Additionally, it couples with the activation of the Ras/MAPK pathway and stimulates DNA synthesis.

intestinal epithelium = settings: rodents; cited from earlier work
Text: as §2

intestinal cells = tested on: intestinal cells; set-up: method as in PMID 32060615; settings: cited from earlier work

Substance: glucose-dependent insulinotropic peptide [GIP]
- concentration–response curve in RGA (specificity) (human GLP-2R [1]): unsuccessfully induced

Substance: IL-4: 200-04, Thermo Fisher Scientific
- concentration–response curve in RGA (specificity) (human GLP-2R [1]): no dose–dependent response curve was induced

Substance: IL-6: 200-06, Thermo Fisher Scientific
- concentration–response curve in RGA (specificity) (human GLP-2R [1]): no dose–dependent response curve was induced

Substance: His-Gly-Asp-Gly-Ser-Phe-Ser-Asp-Glu-Met-Asn-Thr-Ile-Leu-Asp-Asn-Leu-Ala-Ala-Arg-Asp-Phe-Ile-Asn-Trp-Leu-Ile-Gln-Thr-Lys-Ile-Thr-Asp [teduglutide, [Gly2] hGLP-2 (1–33), first and only GLP-2 analogue approved for medical treatment of short bowel syndrome]
- response of five clones (human GLP-2R [1]; clones D5, D9, E11, F2, G11): high response
- Mean Ln potency (human GLP-2R [1]; expected 50%): −0.659
- Mean potency (human GLP-2R [1]; expected 50%): 0.518
- Mean Ln potency (human GLP-2R [1]; expected 71%): −0.343
- Mean potency (human GLP-2R [1]; expected 71%): 0.711
- Mean Ln potency (human GLP-2R [1]; expected 100%): 0.005
- Mean potency (human GLP-2R [1]; expected 100%): 1.007
- Mean Ln potency (human GLP-2R [1]; expected 141%): 0.372
- Mean potency (human GLP-2R [1]; expected 141%): 1.453
- Mean Ln potency (human GLP-2R [1]; expected 200%): 0.757
- Mean potency (human GLP-2R [1]; expected 200%): 2.140
- teduglutide content ([2]; end of decline with incubation at 37 °C): 81.6%
- teduglutide content ([2]; start of decline, 37 °C): 99.9%
- precipitation of DS solution [3]: develops a clear colloidal precipitate
- drug response vs incubation time (human GLP-2R [4]): stronger response (higher upper asymptote)
- intestinal absorption, growth and transit in SBS (patients with SBS; SBS): increase intestinal absorption by promoting intestinal growth and delays accelerated gastric emptying, gastrointestinal transit, and hypersecretions
- PN requirements and intestinal function (patients with SBS; patients with SBS, daily treatment): significant reduction in PN requirements and an improvement in intestinal function
- bioactivity [5]: enhanced bioactivities
- half-life [5]: extended half-lives

Substance: HGDGSFSDE[Nle][dF]TILDLLAARDFINWLIQTKITD-NH2 [apraglutide, GLP-2 analogue under development for SBS, synthesized by GenScript]
- dose-response curve in RGA (human GLP-2R [1]): induced sigmoid curves similar to those induced by teduglutide
- dependence on PN support (patients with SBS; Phase II clinical trials, SBS): significant reduction in patients’ dependence on PN support
- half-life compared to teduglutide and glepaglutide (rat): longer half-life
- intestinotrophic effect compared to teduglutide and glepaglutide (rat): greater intestinotrophic effect
- bioactivity [5]: enhanced bioactivities
- half-life [5]: extended half-lives

Substance: GLP-2 (3–33): truncated and inactive GLP-2 formed by DPP-4 (DGSFSDEMNTILDNLAARDFINWLIQTKITD; Glucagon-like peptide 2; UniProt P01275 148-178, looked up, fragment)
- activity of truncated GLP-2 ([6]; DPP-4 cleavage product): inactive

Substance: Glucagon-like peptide-2 [GLP-2]
- inactivation by DPP-4 ([6]; excision of the two N-terminal amino acids): rapid inactivation
- intestinal absorption, growth and transit in SBS (patients with SBS; SBS): increase intestinal absorption by promoting intestinal growth and delays accelerated gastric emptying, gastrointestinal transit, and hypersecretions
- cAMP accumulation (rat GLP-2R): dose-dependent cAMP accumulation
- neuronal differentiation [7]: stimulate neuronal differentiation
- growth of the intestinal epithelium (intestinal epithelium): enhances the growth of the intestinal epithelium

Substance: HGEGSFSSELSTILDALAARDFINWLIATKITDKKKKKK [elsiglutide, GLP-2 analogue under development, synthesized by GenScript]
- dose-response curve in RGA (human GLP-2R [1]): induced sigmoid curves similar to those induced by teduglutide
- cell proliferation and intestinal cell apoptosis (intestinal cells): increase cell proliferation and reduce intestinal cell apoptosis
- bioactivity [5]: enhanced bioactivities
- half-life [5]: extended half-lives

Substance: glucagon-like peptide-1 [GLP-1]
- concentration–response curve in RGA (specificity) (human GLP-2R [1]): unsuccessfully induced
